Tests used:
EPHB2 = EPHB2 (UniProt P29323); experiment: phosphorylation enrichment, bacterial display (enrichment ratio); higher = better substrate or ligand; peptides without Tyr show the background
MERTK = MERTK (UniProt Q12866); experiment: as above
Hck = Hck (UniProt P08631); experiment: as above
FGFR1 = FGFR1 (UniProt P11362); experiment: as above
Fyn = Fyn (UniProt P06241); experiment: as above
Jak2 = Jak2 (UniProt O60674); experiment: as above
EPHB1 = EPHB1 (UniProt P54762); experiment: as above
c-Abl (mouse) = experiment: as above
Fer (mouse) = experiment: as above
AncSZ = experiment: as above
c-Src = experiment: as above
Fes = Fes (UniProt P07332); experiment: as above
FGFR3 = FGFR3 (UniProt P22607); experiment: as above
Sequence of FGFR3 (P22607 whole entry, looked up): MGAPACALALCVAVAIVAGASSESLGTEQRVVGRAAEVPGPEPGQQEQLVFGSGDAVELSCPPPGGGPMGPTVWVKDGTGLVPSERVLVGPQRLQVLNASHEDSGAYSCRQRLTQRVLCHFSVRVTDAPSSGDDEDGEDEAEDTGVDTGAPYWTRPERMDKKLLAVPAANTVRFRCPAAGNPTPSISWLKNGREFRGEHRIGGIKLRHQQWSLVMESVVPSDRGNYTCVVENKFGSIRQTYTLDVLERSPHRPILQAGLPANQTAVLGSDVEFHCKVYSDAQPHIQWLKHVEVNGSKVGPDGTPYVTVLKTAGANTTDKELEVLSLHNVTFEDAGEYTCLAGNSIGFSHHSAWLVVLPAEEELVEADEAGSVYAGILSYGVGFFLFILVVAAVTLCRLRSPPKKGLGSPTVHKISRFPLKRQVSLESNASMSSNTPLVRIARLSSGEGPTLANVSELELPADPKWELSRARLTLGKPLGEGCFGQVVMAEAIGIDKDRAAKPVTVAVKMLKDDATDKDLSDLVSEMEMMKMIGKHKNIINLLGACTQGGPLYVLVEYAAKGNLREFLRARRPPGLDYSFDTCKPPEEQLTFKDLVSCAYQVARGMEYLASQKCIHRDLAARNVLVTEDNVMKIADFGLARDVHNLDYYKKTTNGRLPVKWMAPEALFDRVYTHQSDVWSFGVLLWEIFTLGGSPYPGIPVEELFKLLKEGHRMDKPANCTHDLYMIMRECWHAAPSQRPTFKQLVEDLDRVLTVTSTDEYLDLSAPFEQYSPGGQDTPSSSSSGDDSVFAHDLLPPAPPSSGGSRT

c-Src SH2 = experiment: SH2 binding enrichment of the phosphorylated peptide, bacterial display (enrichment ratio); higher = better substrate or ligand; peptides without Tyr show the background
SHP2-C SH2 = experiment: as above
Grb2 SH2 = Grb2 SH2 (UniProt P62993); experiment: as above
Sequence of Grb2 SH2 (P62993 whole entry, looked up, the tested form may be a part): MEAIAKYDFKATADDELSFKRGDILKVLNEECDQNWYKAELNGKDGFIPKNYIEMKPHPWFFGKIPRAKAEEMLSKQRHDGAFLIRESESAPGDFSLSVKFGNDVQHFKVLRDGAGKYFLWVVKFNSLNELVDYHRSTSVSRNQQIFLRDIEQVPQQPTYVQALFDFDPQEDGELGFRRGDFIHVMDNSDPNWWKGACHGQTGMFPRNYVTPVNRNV
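Wherever SH2 binding enrichment of the phosphorylated peptide, bacterial display is given: peptide library displayed on the E. coli surface as eCPX fusions, selected cells deep-sequenced, score is each peptide's frequency after selection divided by its frequency in the input.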
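Wherever phosphorylation enrichment, bacterial display is given: 11-residue human phosphosite peptides and single-mutation variants displayed on the E. coli surface, counted by deep sequencing, each peptide's frequency after selection divided by its frequency in the unselected input library; frequency after pTyr selection over input frequency; kinase dosed for 20-30% of maximal phosphorylation in three min.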

Sequence of MERTK (Q12866 whole entry, looked up): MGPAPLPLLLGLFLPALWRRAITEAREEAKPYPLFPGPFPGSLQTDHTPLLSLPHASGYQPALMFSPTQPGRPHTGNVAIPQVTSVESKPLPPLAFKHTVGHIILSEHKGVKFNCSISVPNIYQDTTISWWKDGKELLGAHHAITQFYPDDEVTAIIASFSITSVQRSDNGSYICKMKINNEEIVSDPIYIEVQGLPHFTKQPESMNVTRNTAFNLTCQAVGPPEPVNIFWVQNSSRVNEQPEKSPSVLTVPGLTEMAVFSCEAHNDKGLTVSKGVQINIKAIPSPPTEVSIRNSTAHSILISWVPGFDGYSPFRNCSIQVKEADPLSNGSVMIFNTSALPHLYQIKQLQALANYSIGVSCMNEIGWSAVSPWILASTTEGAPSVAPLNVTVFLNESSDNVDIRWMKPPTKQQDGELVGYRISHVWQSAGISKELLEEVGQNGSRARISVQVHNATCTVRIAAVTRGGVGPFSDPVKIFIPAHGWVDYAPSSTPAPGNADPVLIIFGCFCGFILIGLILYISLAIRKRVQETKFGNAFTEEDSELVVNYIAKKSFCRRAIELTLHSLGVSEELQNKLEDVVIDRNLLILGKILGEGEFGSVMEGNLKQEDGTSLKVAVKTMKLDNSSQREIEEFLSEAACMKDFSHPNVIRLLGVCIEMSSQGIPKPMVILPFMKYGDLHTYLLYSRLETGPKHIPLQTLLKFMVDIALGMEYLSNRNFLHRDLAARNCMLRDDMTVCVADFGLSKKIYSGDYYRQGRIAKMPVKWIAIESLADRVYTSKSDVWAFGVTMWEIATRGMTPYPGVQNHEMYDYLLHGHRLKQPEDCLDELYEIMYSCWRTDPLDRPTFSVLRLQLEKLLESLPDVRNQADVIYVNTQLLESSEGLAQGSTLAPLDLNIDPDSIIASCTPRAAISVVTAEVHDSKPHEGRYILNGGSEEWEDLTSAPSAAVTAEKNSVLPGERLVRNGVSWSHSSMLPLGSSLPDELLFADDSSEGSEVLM
Sequence of EPHB2 (P29323 whole entry, looked up): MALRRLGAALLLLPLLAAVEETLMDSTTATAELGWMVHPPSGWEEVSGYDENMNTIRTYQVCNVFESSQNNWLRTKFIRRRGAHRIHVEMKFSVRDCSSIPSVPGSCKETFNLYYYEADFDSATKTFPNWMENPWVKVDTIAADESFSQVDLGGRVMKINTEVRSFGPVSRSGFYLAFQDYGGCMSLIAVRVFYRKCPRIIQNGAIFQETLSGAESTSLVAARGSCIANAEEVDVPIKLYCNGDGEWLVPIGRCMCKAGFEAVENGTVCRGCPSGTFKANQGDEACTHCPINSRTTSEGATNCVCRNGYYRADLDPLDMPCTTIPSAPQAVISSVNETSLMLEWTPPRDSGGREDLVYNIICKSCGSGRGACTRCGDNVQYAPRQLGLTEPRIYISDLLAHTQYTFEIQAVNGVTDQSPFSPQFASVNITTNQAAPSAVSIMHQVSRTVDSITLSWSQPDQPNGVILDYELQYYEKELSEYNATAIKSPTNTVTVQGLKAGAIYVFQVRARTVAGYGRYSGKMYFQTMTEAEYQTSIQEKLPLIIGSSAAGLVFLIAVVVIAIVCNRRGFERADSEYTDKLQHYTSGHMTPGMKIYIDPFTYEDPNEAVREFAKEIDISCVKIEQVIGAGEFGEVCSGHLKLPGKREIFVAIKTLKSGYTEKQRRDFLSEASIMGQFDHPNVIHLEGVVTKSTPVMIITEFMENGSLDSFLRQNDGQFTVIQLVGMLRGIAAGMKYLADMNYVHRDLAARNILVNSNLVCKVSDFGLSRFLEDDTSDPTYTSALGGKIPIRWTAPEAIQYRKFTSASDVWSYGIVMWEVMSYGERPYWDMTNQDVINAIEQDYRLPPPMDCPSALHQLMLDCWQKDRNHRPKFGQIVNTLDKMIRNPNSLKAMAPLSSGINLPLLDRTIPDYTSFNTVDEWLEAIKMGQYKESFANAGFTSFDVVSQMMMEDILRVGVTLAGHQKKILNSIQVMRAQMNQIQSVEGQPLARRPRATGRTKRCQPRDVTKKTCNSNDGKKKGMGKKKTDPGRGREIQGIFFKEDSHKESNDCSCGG
Sequence of Fyn (P06241 whole entry, looked up): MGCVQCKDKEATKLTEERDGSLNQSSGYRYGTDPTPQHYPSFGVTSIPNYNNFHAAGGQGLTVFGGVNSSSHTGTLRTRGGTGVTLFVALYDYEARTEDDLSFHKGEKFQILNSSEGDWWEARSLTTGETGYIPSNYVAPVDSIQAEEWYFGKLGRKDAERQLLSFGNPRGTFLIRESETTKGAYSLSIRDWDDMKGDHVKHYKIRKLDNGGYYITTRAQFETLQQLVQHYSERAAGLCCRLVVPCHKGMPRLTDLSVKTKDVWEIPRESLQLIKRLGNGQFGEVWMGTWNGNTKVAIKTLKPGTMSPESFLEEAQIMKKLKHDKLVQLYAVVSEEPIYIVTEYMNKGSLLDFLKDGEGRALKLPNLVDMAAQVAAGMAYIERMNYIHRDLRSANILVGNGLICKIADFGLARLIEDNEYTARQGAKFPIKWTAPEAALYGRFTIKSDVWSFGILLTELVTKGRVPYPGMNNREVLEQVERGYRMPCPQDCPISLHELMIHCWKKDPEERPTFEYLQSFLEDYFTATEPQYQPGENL
Sequence of FGFR1 (P11362 whole entry, looked up): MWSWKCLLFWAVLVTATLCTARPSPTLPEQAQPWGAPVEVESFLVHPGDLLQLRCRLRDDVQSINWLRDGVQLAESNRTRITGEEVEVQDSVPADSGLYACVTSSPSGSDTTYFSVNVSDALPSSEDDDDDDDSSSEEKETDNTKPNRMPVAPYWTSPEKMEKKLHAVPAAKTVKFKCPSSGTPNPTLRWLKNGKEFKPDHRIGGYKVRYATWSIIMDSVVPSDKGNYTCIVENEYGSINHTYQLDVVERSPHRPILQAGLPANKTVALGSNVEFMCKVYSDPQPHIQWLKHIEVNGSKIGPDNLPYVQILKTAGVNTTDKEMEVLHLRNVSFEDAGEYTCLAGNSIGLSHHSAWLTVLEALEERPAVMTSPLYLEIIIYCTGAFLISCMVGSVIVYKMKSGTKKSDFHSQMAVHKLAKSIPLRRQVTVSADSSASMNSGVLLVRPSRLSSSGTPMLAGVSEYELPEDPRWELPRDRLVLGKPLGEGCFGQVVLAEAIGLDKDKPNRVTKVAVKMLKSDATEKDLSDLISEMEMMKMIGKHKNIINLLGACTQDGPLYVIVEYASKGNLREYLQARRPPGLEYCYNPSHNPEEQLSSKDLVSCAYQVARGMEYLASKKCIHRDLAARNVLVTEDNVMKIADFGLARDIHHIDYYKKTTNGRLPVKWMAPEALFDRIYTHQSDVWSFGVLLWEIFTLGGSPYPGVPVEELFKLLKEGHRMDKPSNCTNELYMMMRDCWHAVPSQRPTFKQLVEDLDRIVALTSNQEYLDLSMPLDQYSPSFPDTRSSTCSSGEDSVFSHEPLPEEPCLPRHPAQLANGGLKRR
Sequence of Hck (P08631 whole entry, looked up): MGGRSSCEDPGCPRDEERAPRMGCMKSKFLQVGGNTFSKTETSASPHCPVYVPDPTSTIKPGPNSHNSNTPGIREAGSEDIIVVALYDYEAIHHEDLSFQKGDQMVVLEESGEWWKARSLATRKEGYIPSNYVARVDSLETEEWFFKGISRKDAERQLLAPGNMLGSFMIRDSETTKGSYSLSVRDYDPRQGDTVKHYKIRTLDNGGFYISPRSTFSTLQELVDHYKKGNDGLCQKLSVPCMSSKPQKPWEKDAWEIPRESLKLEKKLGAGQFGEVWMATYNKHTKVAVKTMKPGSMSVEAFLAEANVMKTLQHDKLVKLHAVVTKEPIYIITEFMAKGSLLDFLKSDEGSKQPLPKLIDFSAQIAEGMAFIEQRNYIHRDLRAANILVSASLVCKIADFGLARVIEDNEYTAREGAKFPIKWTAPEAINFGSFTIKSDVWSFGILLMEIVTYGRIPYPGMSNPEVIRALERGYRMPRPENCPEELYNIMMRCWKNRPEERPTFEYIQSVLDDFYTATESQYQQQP

Sequence | phosphorylation enrichment (EPHB2) | phosphorylation enrichment (MERTK) | phosphorylation enrichment (Hck) | phosphorylation enrichment (FGFR1) | phosphorylation enrichment (Fyn) | phosphorylation enrichment (Jak2) | phosphorylation enrichment (EPHB1) | phosphorylation enrichment (c-Abl (mouse)) | phosphorylation enrichment (Fer (mouse)) | phosphorylation enrichment (AncSZ) | phosphorylation enrichment (c-Src) | phosphorylation enrichment (Fes) | phosphorylation enrichment (FGFR3) | SH2 binding enrichment (c-Src SH2) | SH2 binding enrichment (SHP2-C SH2) | SH2 binding enrichment (Grb2 SH2)
ELPEKYSQNIF [PKP2_Y626_YF] | 0.492 | 0.538 | 0.507 | 0.579 | 0.413 | 1.09 | 0.528 | 0.605 | 0.423 | 0.989 | 0.539 | 1.05 | 0.659 | 0.614 | 0.711 | 0.864
GFSDPYVKASL [SYT3_Y470] | 0.436 | 0.391 | 0.38 | 0.444 | 0.374 | 0.646 | 0.329 | 0.544 | 0.488 | 0.568 | 0.393 | 0.722 | 0.4 | 0.452 | 0.801 | 0.796
RAYSWYQHQRA [NDST1_Y714] | 0.716 | 0.619 | 0.582 | 0.472 | 0.242 | 1.06 | 0.538 | 0.964 | 0.641 | 1.03 | 0.527 | 1.16 | 0.792 | 1.18 | 1.79 | 1.58
CSSPTYRDCLQ [LARGE2_Y682_R677C] | 0.436 | 0.37 | 0.473 | 0.49 | 0.402 | 0.846 | 0.5 | 0.503 | 0.408 | 0.812 | 0.484 | 0.892 | 0.738 | 1 | 1.15 | 0.94
SLFPGYNFRFA [P2RX7_Y291_YF] | 0.46 | 0.475 | 0.476 | 0.433 | 0.472 | 0.673 | 0.614 | 0.508 | 0.511 | 0.844 | 0.502 | 0.953 | 0.736 | 0.819 | 0.962 | 1.24
SQSPHYFRSGR [GPATCH8_Y1038] | 0.394 | 0.502 | 0.389 | 0.383 | 0.476 | 0.687 | 0.56 | 0.544 | 0.427 | 0.719 | 0.538 | 0.819 | 0.425 | 0.394 | 0.411 | 0.731
TTPGPHRSIFF [MPG_Y71_Y71H_YF] | 0.386 | 0.376 | 0.355 | 0.353 | 0.398 | 0.449 | 0.41 | 0.542 | 0.328 | 0.502 | 0.303 | 0.514 | 0.41 | 0.681 | 1 | 0.895
LGKGSYAKVRS [TSSK2_Y23_K27R] | 0.408 | 0.744 | 0.586 | 0.558 | 0.725 | 1.33 | 0.395 | 1.12 | 0.626 | 1.02 | 0.792 | 0.733 | 0.699 | 2.29 | 2.14 | 1.73
TRTEAYAVSSF | 0.378 | 0.406 | 0.359 | 0.373 | 0.399 | 0.587 | 0.442 | 0.476 | 0.328 | 0.58 | 0.353 | 0.816 | 0.396 | 1.65 | 0.608 | 0.88
CTTIHYNYMCD [TP53_Y234_N239D] | 0.515 | 0.426 | 0.469 | 0.57 | 0.405 | 0.625 | 0.647 | 0.545 | 0.465 | 0.796 | 0.422 | 0.898 | 0.631 | 8.55 | 2.32 | 1.16
VVQGLYKSMPK [KBTBD2_Y250] | 0.477 | 0.532 | 0.438 | 0.384 | 0.34 | 0.516 | 0.386 | 0.492 | 0.328 | 0.53 | 0.403 | 0.611 | 0.537 | 0.429 | 0.79 | 0.752
RRGMPYGGCGD [TGM1_Y312_R315C] | 0.486 | 0.454 | 0.659 | 0.634 | 0.522 | 0.5 | 0.551 | 0.595 | 0.409 | 0.782 | 0.486 | 0.489 | 0.573 | 0.327 | 0.57 | 0.544
RALCHYYKLNI [ETV6_Y401_R399C] | 1.16 | 3.95 | 1.59 | 9.12 | 0.947 | 6.35 | 1.09 | 2.78 | 1.29 | 1.88 | 2.63 | 1.99 | 5.19 | 1.45 | 1.23 | 1.74
PEFVVYKPQME [CCRL2_Y170] | 0.843 | 0.972 | 0.883 | 0.673 | 0.814 | 1.82 | 1.12 | 1.42 | 0.898 | 1.7 | 0.783 | 1.82 | 1.08 | 0.635 | 0.686 | 1.02
NRDNTYNPVSE [FGA_Y127_R129P] | 0.465 | 0.486 | 0.658 | 0.457 | 0.562 | 0.699 | 0.544 | 0.545 | 0.481 | 0.751 | 0.522 | 0.857 | 0.627 | 0.425 | 0.443 | 0.694
IGNGFYFRVFS [MYBPC3_Y1136_YF] | 0.568 | 0.374 | 0.45 | 0.438 | 0.365 | 1.43 | 0.64 | 0.818 | 0.519 | 1.05 | 0.361 | 1.38 | 0.756 | 0.466 | 1.06 | 0.964
EKLQQYLAPGM [EPHB3_Y600_I601L] | 0.489 | 0.487 | 0.48 | 0.466 | 0.398 | 0.57 | 0.408 | 0.732 | 0.54 | 0.68 | 0.347 | 0.863 | 0.493 | 0.564 | 0.559 | 0.745

Sequence | phosphorylation enrichment (EPHB2) | phosphorylation enrichment (MERTK) | phosphorylation enrichment (Hck) | phosphorylation enrichment (FGFR1) | phosphorylation enrichment (Fyn) | phosphorylation enrichment (Jak2) | phosphorylation enrichment (EPHB1) | phosphorylation enrichment (c-Abl (mouse)) | phosphorylation enrichment (Fer (mouse)) | phosphorylation enrichment (AncSZ) | phosphorylation enrichment (c-Src) | phosphorylation enrichment (Fes) | phosphorylation enrichment (FGFR3) | SH2 binding enrichment (c-Src SH2) | SH2 binding enrichment (SHP2-C SH2) | SH2 binding enrichment (Grb2 SH2)
GIVKAYYVHAR [AIPL1_Y267_R270H] | 0.51 | 0.436 | 0.412 | 0.482 | 0.418 | 0.866 | 0.498 | 0.569 | 0.452 | 0.732 | 0.538 | 0.736 | 0.514 | 0.982 | 1.05 | 1.23
QDDFSYPSRQM [LDLR_Y847_G844D_YF] | 0.575 | 0.497 | 0.575 | 0.425 | 0.414 | 0.674 | 0.549 | 0.609 | 0.492 | 0.791 | 0.403 | 0.826 | 0.704 | 0.54 | 0.892 | 0.851
GRQGIYTKNER [GPR143_Y231_E233K] | 0.329 | 0.359 | 0.327 | 0.447 | 0.386 | 0.46 | 0.357 | 0.422 | 0.556 | 0.422 | 0.327 | 0.466 | 0.371 | 0.493 | 0.802 | 1.01
VKKKLDEEIDQ [CYP17A1_Y329_Y329D] | 0.555 | 0.523 | 0.488 | 0.578 | 0.483 | 0.782 | 0.505 | 0.693 | 0.422 | 0.839 | 0.441 | 0.792 | 0.579 | 0.705 | 0.853 | 1.03
NTYEKYWPFYQ [GATM_Y103] | 8.15 | 5.5 | 4.39 | 2.76 | 5.72 | 1.93 | 6.55 | 1.17 | 1.92 | 1.41 | 5 | 2.3 | 1.89 | 1.24 | 0.762 | 1.14
TVQVAYFTMMM [SPATA17_Y83_YF] | 0.667 | 0.441 | 0.59 | 1.04 | 0.5 | 1.15 | 0.662 | 0.791 | 0.678 | 1.04 | 0.599 | 1.41 | 1.17 | 0.453 | 0.704 | 0.745
PSQRRYLYYYS [PTEN_Y174_V175L] | 0.697 | 4.1 | 0.737 | 0.873 | 1.04 | 1.99 | 0.616 | 0.659 | 0.92 | 1.77 | 0.64 | 1.4 | 0.937 | 1.06 | 1.48 | 0.84
LNPLVYTLRNA [OR4C12_Y285_V283L] | 1.28 | 1.21 | 1.81 | 1.01 | 2.22 | 1.1 | 0.712 | 1.19 | 0.76 | 1.05 | 3.54 | 1.51 | 1.04 | 1.02 | 0.893 | 1.22
DPHKIYEFVNS [IRF3_Y107] | 19.2 | 10.3 | 10.3 | 1.77 | 9.53 | 0.729 | 18.2 | 4.23 | 18.1 | 0.984 | 8.03 | 7.43 | 1.51 | 0.609 | 0.766 | 0.902
YEREQYADRAR [RBM4_Y355] | 0.432 | 0.29 | 0.439 | 0.495 | 0.37 | 0.575 | 0.383 | 0.531 | 0.441 | 0.701 | 0.338 | 0.707 | 0.534 | 0.591 | 0.727 | 0.881
VSRGRYRPEEC [B4GALT4_Y113_Q116E] | 0.51 | 0.614 | 0.522 | 0.439 | 0.472 | 0.561 | 0.443 | 0.568 | 0.52 | 0.692 | 0.562 | 0.512 | 0.524 | 0.428 | 0.465 | 0.699
IDDNQYAFLKA [HNF4A_Y286_E285Q_YF] | 0.487 | 0.84 | 1.64 | 2.5 | 0.604 | 0.709 | 0.494 | 1.02 | 0.852 | 0.823 | 0.553 | 0.839 | 1.61 | 0.803 | 0.631 | 0.677
SSFDIYHLSRE [KIR3DL2_Y253_YF] | 0.762 | 2.6 | 9.84 | 1.44 | 12.1 | 0.817 | 0.975 | 0.807 | 0.788 | 1.12 | 7.22 | 1.02 | 1.29 | 0.608 | 0.694 | 0.776
TLSGIYQFIIA [FOXL2_Y81_YF] | 9.15 | 10.1 | 8.44 | 10.4 | 6.83 | 1.2 | 14.2 | 2.71 | 15 | 1.81 | 5.96 | 3.16 | 7.18 | 1.24 | 1.13 | 1.49
QKKPRYEIRWK [PDGFRB_Y562] | 0.919 | 1.16 | 0.723 | 0.756 | 0.895 | 1.74 | 0.928 | 1.05 | 1.02 | 1.96 | 0.605 | 1.75 | 2.06 | 1.64 | 3 | 2.77
MPPHIYAITDT [MYH9_Y151] | 0.514 | 4.75 | 1.22 | 0.59 | 1.73 | 0.68 | 1.4 | 0.922 | 0.679 | 0.709 | 2.26 | 0.936 | 0.514 | 7.82 | 0.664 | 0.965
